Laboratory results published in publication PMC2752815.

Target: mouse βB1-crystallin (mouse) (UniProt Q9WVJ5)
Test: AUC

- Kd: 1550 nM
- stoichiometry N: 2
Substance: mouse βB1-crystallin (from UniProt Q9WVJ5 1-250) (natural protein)
